Data as given in patent publication CN114634568A (SHENZHEN PHENPENG BIOTHERAPY CO LTD, dated 2022).

Tests used:
h BCMA ECD mFc = target: T1, h BCMA ECD mFc (human, UniProt Q02223 1-54); test: BLI (Fortebio), h BCMA ECD mFc 3 ug/mL loaded on AMC biosensor, antibody in solution
T1 construct: extracellular domain; also called hBCMA-mFc; not shown: mouse Fc (mFc)
T1 sequence (looked up): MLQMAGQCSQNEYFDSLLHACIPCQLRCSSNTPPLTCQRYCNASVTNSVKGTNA

[1] = target: T2, 人BCMA全长 (K562-BCMA细胞株和CHO-BCMA细胞株表面表达) (human, UniProt Q02223 1-184); test: flow cytometry on K562-BCMA and CHO-BCMA cells, APC anti-human IgG Fc
T2 construct: whole, on cells; also called BCMA表达阳性的细胞
T2 sequence (looked up): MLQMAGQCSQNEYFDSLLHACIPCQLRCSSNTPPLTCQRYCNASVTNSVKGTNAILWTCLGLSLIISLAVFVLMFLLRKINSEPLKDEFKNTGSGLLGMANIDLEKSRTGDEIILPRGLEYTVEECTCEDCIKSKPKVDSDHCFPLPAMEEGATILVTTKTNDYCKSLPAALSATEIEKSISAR

[2] = target: T3, hu(人)BCMA ECD His, ACRO, BCA-H522y (human, UniProt Q02223 1-54); test: ELISA, hu BCMA ECD His coated at 2 μg/mL
T3 construct: extracellular domain; Bought reagent; also called hu BCMA ECD His; BCMA抗原; not shown: His tag
T3 sequence (looked up): T1 sequence (looked up)

Measured: binding result

B1: 鼠源BCMA抗体 mVH-mVL (CN201911298620.7专利中5E2 BCMA抗体) (antibody, V domains shown)
VH: EVQLQQSGPELIKPGASVKMSCKASGYTFTSYVVHWVKQKPGQGLEWIGYIIPYNDDTKYNEKFKGKATLTSDKSSSTAYMELSSLTSEDSAVYYCARWDYDDGYFDYWGQGTTLTVSS
VL: DVVMTQTPLSLPVTLGDQASISCRSSQSLLHSNGNTYLHWYLQKPGQSPKLLIYKVSNRFSGVPDRFSGSGSGTDFTLKISRVEAEDLGVYFCSQITHIPFTFGSGTKLEIKR
notes: In flow cytometry the detection reagent was APC anti-human IgG Fc
binds: all assays above
